From paper PMC4748810, “Structural basis for the endoribonuclease activity of the type III-A CRISPR-associated protein Csm6” (RNA, 2016)
Where a chain is given by its changes, count along the chain named. Names and notes keep the numbering of the source.

Molecular target: the molecule itself
Experiment: SEC; size-exclusion chromatography of purified proteins (Supplemental Fig. 3); the purification used Superdex 200 (26/600) in 20 mM HEPES 7.5, 500 mM KCl

B1: Thermus thermophilus Csm6 (enzyme, UniProt Q53W17 1-464, looked up)
chain: MEDLDALWERYREAVRAGGNPQALYQEMVWPALLALWREKPRVYPFPQAFAVSVHTLGTSPEATALAILGAGAERVYVLHTPESARFLPRLRQDTGKDLYPVEIGKSDVEAIYREVKRLLEKHPEVPVALDLTSGTKAMSAGLAAAGFFFQRFYPKVRVVYVDNEDYDPELRRPRAGTEKLRILPNPHEALAEVDALFAKELYGKGEFGQAAAYFRGMVGRTGNQAYALYALLAEMYRAWRALDFGEALKAGRKLLGQLSQNVWLNHPLNARREALEAQVALLEAVDRFLKARDFALKEGVYGLARTLLHLAQEAKEEAAVLAALYAYRALELLLQERLALLGRRAEAPGLSPEEAEALRKALAELLGVLPEEVRLPAKLGLLDLLAFLRLKGDEALGRLSLAELRGLAGALKGRNSALLVHGFDVPSPKAVEGIARLAQGLLQDLEARTALGPLSPEPVPLGF
notes: amplified from genomic DNA; Homodimer in the crystal and in solution; also called TtCsm6; TTHB152; not shown: His6, N-terminal, cleaved
  stoichiometry N: 2

B2: TtCsm6 with Arg415 substituted by alanine (enzyme, Thermus thermophilus, UniProt Q53W17 1-464, looked up)
chain: B1 chain with R415A
notes: also called R415A; not shown: His6, N-terminal, cleaved
  stoichiometry N: 2

B3: TtCsm6 with Asn416 substituted by alanine (enzyme, Thermus thermophilus, UniProt Q53W17 1-464, looked up)
chain: B1 chain with N416A
notes: also called N416A; not shown: His6, N-terminal, cleaved
  stoichiometry N: 2

B4: TtCsm6 with His422 substituted by alanine (enzyme, Thermus thermophilus, UniProt Q53W17 1-464, looked up)
chain: B1 chain with H422A
notes: also called H422A; not shown: His6, N-terminal, cleaved
  stoichiometry N: 2

B5: TtCsm6 with Glu332 substituted by alanine (enzyme, Thermus thermophilus, UniProt Q53W17 1-464, looked up)
chain: B1 chain with E332A
notes: also called E332A; not shown: His6, N-terminal, cleaved
  stoichiometry N: 2
